In US20030064916A1:

Molecular target: HLA-A2.1 (human), A*02:0
Test: cell-based or functional assay

Specific 51Cr release (%) by CTL A2 149, E:T 10, BT 549 targets, with anti-A2 (53 without): 37% | Specific 51Cr release (%) by CTL A2 149, E:T 10, MCF7 targets, with anti-A2 (38 without): 13% | Specific 51Cr release (%) by CTL A2 149, E:T 10, MDA 231 targets, with anti-A2 (24 without): 5% | Specific 51Cr release (%) by CTL A2 149, E:T 10, Ramos A2.1 targets, with anti-A2 (39 without): 12% | Specific 51Cr release (%) by CTL A2 149, E:T 10, SW 480 targets, with anti-A2 (55 without): 26% | Specific 51Cr release (%) by CTL A2 264, E:T 10, BT 549 targets, with anti-A2 (79 without): 47% | Specific 51Cr release (%) by CTL A2 264, E:T 10, MCF7 targets, with anti-A2 (79 without): 38% | Specific 51Cr release (%) by CTL A2 264, E:T 10, MDA 231 targets, with anti-A2 (31 without): 10% | Specific 51Cr release (%) by CTL A2 264, E:T 10, Ramos A2.1 targets, with anti-A2 (43 without): 0% | Specific 51Cr release (%) by CTL A2 264, E:T 10, SW 480 targets, with anti-A2 (59 without): 17%
Substance: A2-specific monoclonal antibody PA2.1 (ATCC HB 117)
